Reference: article PMC10991452, “Bioeconomic production of high-quality chitobiose from chitin food wastes using an in-house chitinase from Vibrio campbellii” (Bioresources and Bioprocessing, 2022)

Substrate: CC(=O)N[C@H]1[C@H](Oc2ccc([N+](=O)[O-])cc2)O[C@H](CO)[C@@H](O[C@@H]2O[C@H](CO)[C@@H](O)[C@H](O)[C@H]2NC(C)=O)[C@@H]1O
Assay: purified protein
Assay type: biochemical, Vibrio harveyi
Settings: 0.1 M sodium acetate pH 5.5, 30 °C, 10 min, 0-500 µM substrate

B1: VhChiA (Vibrio harveyi) (protein)
chain: APTAPSIDMYGSNNLQFSKIELAMETTSGYNDMVKYHELAKIKVKFNQWSGTSGDTYNVYFDGVKVATGAITGSQTTASFEYGQGGLYQMEIEACDATGCSKSAPVEITIADTDGSHLKPLTMNVDPNNKSYNTDPSIVMGTYFVEWGIYGRDYTVDNMPVDNLTHILYGFIPICGPNESVKSVGGNSFNALQTACRGVNDYEVVIHDPWAAYQKSFPQAGHEYSTPIKGNYAMLMALKQRNPDLKIIPSIGGWTLSDPFYDFVDKKNRDTFVASVKKFLKTWKFYDGVDIDWEFPGGGGAAADKGDPVNDGPAYIALMRELRVMLDELEAETGRTYELTSAIGVGYDKIEDVDYADAVQYMDYIFAMTYDFYGGWNNVPGHQTALYCGSFMRPGQCDGGGVDENGEPYKGPAYTADNGIQLLLAQGVPANKLVLGTAMYGRGWEGVTPDTLTDPNDPMTGTATGKLKGSTAQGVWEDGVIDYKGIKSFMLGANNTGINGFEYGYDAQAEAPWVWNRSTGELITFDDHRSVLAKGNYAKSLGLAGLFSWEIDADNGDILNAMHEGMAGGVVTPPNR
  Km: 216 µM
